Test results as given in patent US20210284747A1 (CAPELLA BIOSCIENCE, published 2021).

T1: Human LIGHT-32L, on II23 cells (human, UniProt O43557 1-240)
T1 construct: also called II23-LIGHT 32L
T1 chain: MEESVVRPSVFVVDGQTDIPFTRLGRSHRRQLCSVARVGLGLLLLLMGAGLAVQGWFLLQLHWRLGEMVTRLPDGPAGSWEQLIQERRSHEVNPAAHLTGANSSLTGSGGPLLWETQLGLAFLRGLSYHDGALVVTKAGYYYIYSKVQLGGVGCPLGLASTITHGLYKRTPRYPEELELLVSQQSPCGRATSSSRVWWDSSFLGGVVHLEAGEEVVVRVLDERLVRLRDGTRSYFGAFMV


Tests used:
[1] = target: T2, Human LIGHT-214E, full length, expressed on cells (human, UniProt O43557 1-240); assay: flow cytometry, HEK293FF human LIGHT cells
T2 construct: also called membrane LIGHT

[2] = target: LIGHT without residues 81-84, stably expressed on EL4 cells (EL4-NC-LIGHT); assay: cell-based or functional assay
[3] = target: T3, Human LIGHT stably expressed on EL4 cells (EL4-LIGHT) (human, UniProt O43557 1-240); assay: flow cytometry, against F19 and F23
T3 construct: whole, on cells; also called membrane LIGHT
T3 sequence (O43557 whole entry): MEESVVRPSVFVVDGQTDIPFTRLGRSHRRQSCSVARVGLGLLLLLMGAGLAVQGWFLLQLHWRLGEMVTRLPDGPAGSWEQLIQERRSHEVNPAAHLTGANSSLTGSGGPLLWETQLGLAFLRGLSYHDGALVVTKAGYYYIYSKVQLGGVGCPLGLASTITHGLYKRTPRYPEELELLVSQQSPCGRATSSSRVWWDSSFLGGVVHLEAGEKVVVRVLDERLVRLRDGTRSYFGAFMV

[4] = target: T3, Human LIGHT stably expressed on EL4 …; assay: flow cytometry, EL4-LIGHT cells
Procedure: The EC50 of the 7 mAbs were calculated from binding to EL4-LIGHT cells (FIG. 1). […] Non-linear regression analysis was performed to determine the functional binding affinity measurement or EC50 for each mAb. A range of functional affinities was observed.

[5] = target: Full length LIGHT G188A on HEK293FF cells (Homo sapiens (Human), UniProt O43557 1-240); assay: flow cytometry, HEK293FF, mAb at EC50
Sequence of Full length LIGHT G188A on HEK293FF cells (O43557 whole entry G188A): as the sequence (O43557 whole entry) above, with G188A counted along it
Procedure: (§1) The day of transfection the cells were seeded in a 24-well plate at 0.6×10⁶ cells/well. Lipofectamine 2000 (ThermoFisher scientific), 3 ul, was mixed with 50 μl OptiMEM medium (GIBCO) and then added to 50 μl Opti-MEM medium containing 3 ug plasmid DNA and incubated for 20 min at RT to form DNA-Lipofectamine 2000 complexes which were then added to the HEK293FF cells and incubated at 37° C., 5% CO₂ for 24 hours. For each construct, in duplicate, 0.60×10⁶ cells/well were used in a 96 well round bottom plate. Cells were centrifuged for 3 minutes at 300×g at 4° C., the supernatant discarded and the cells washed with 150 μl FACS buffer (0.5% FBS in phosphate buffered saline). This process was repeated 3 times. […] The wells were washed 3 times as above and 50 μl/well of goat anti-human IgG FITC (1:1500 dilution in FACS buffer, SIGMA F9512-2ML) or goat anti-mouse APC (1/500 dilution in FACS buffer, BDBioscience 550826), as appropriate, was added to the wells and incubated for 30 min at 4° C. protected from the light, with shaking. The cells were then washed as above, resuspended in 100 μl of FACS buffer and binding of the antibodies to the constructs was measured using flow cytometry and a total of 10,000 cells were acquired for each sample. Controls of buffer and secondary antibody only as well as HEK293FF non transfected cells were also used.

[6] = target: Full length LIGHT R189A on HEK293FF cells (Homo sapiens (Human), UniProt O43557 1-240); assay: flow cytometry, HEK293FF, mAb at EC50
Sequence of Full length LIGHT R189A on HEK293FF cells (O43557 whole entry R189A): as the sequence (O43557 whole entry) above, with R189A counted along it
Procedure: as §1

[7] = target: Full length LIGHT A190S on HEK293FF cells (Homo sapiens (Human), UniProt O43557 1-240); assay: flow cytometry, HEK293FF, mAb at EC50
Sequence of Full length LIGHT A190S on HEK293FF cells (O43557 whole entry A190S): as the sequence (O43557 whole entry) above, with A190S counted along it
Procedure: as §1

[8] = target: Full length LIGHT T191A on HEK293FF cells (Homo sapiens (Human), UniProt O43557 1-240); assay: flow cytometry, HEK293FF, mAb at EC50
Sequence of Full length LIGHT T191A on HEK293FF cells (O43557 whole entry T191A): as the sequence (O43557 whole entry) above, with T191A counted along it
Procedure: as §1

[9] = target: Full length LIGHT S192A on HEK293FF cells (Homo sapiens (Human), UniProt O43557 1-240); assay: flow cytometry, HEK293FF, mAb at EC50
Sequence of Full length LIGHT S192A on HEK293FF cells (O43557 whole entry S192A): as the sequence (O43557 whole entry) above, with S192A counted along it
Procedure: as §1

[10] = target: Full length LIGHT S193A on HEK293FF cells (Homo sapiens (Human), UniProt O43557 1-240); assay: flow cytometry, HEK293FF, mAb at EC50
Sequence of Full length LIGHT S193A on HEK293FF cells (O43557 whole entry S193A): as the sequence (O43557 whole entry) above, with S193A counted along it
Procedure: as §1

[11] = target: Full length LIGHT S194A on HEK293FF cells (Homo sapiens (Human), UniProt O43557 1-240); assay: flow cytometry, HEK293FF, mAb at EC50
Sequence of Full length LIGHT S194A on HEK293FF cells (O43557 whole entry S194A): as the sequence (O43557 whole entry) above, with S194A counted along it
Procedure: as §1

[12] = target: Full length LIGHT R195A on HEK293FF cells (Homo sapiens (Human), UniProt O43557 1-240); assay: flow cytometry, HEK293FF, mAb at EC50
Sequence of Full length LIGHT R195A on HEK293FF cells (O43557 whole entry R195A): as the sequence (O43557 whole entry) above, with R195A counted along it
Procedure: as §1

[13] = target: Full length LIGHT V196A on HEK293FF cells (Homo sapiens (Human), UniProt O43557 1-240); assay: flow cytometry, HEK293FF, mAb at EC50
Sequence of Full length LIGHT V196A on HEK293FF cells (O43557 whole entry V196A): as the sequence (O43557 whole entry) above, with V196A counted along it
Procedure: as §1

[14] = target: Full length LIGHT W197A on HEK293FF cells (Homo sapiens (Human), UniProt O43557 1-240); assay: flow cytometry, HEK293FF, mAb at EC50
Sequence of Full length LIGHT W197A on HEK293FF cells (O43557 whole entry W197A): as the sequence (O43557 whole entry) above, with W197A counted along it
Procedure: as §1

[15] = target: Full length LIGHT W198A on HEK293FF cells (Homo sapiens (Human), UniProt O43557 1-240); assay: flow cytometry, HEK293FF, mAb at EC50
Sequence of Full length LIGHT W198A on HEK293FF cells (O43557 whole entry W198A): as the sequence (O43557 whole entry) above, with W198A counted along it
Procedure: as §1

[16] = target: T1, Human LIGHT-32L, on II23 cells; assay: flow cytometry on II23-LIGHT 32L cells, 4 ug mAb in 100 uL, goat anti-human Fc gamma-PE; signal as % of the commercial anti-LIGHT-PE
Procedure: The cells were suspended at 1×10⁷ cells/ml and 100 uL aliquots were placed into wells of a 96-well plate, the cells spun down and washed in FACS buffer at 1800 rpm for 2 min. The cells were blocked with 1:100 dilution of anti-CD16/CD32 (eBioscience, San Diego, USA) in FACS buffer for 20 min at room temperature and then washed 1× in FACS buffer at 1800 rpm for 2 min. The cells were then resuspended in 100 uL FACS buffer+4 ug anti-membrane LIGHT mAbs or anti-LIGHT-PE (eBioscience, lot: E01621-1632) for 30 min in the dark at room temperature, followed by washing 1× in FACS buffer at 1800 rpm for 2 min and then resuspended in 100 uL FACS buffer plus 1:100 goat anti-human Fcγ-PE secondary antibody or no secondary antibody at 4° C. in the dark for 30 min. The cells were again washed 1× in FACS buffer at 1800 rpm for 2 min and fixed in 200 uL 2% paraformaldehyde overnight at 4° C. and read on a flow cytometer.

[17] = target: T3, Human LIGHT stably expressed on EL4 …; assay: flow cytometry competition on EL4-LIGHT cells, co-incubation 40 min 4 C; blocked ligand DcR3-Fc-AF647 0.8 ug/ml; displacement is partial
Procedure: (§2) EL4-LIGHT cells were co-incubated with Alexa Fluor 647 conjugated DcR3-Fc (DcR3-Fc-AF647; 0.8 μg/ml) and graded concentrations (31 μg/ml to 128 μg/ml) of anti-membrane LIGHT antibodies (3B04, 03D12 and 02B111) for 40 min at 4° C. A control, of a mAb that binds both soluble and membrane LIGHT was included (F19 from EP2292663). The samples were washed three times and flow cytometry analysis was performed. Specific mean fluorescence intensity (MFI) obtained from the binding of DcR3-Fc-AF647 to LIGHT on EL4 cells were used to determine the levels of competition binding.

[18] = target: T3, Human LIGHT stably expressed on EL4 …; assay: flow cytometry competition on EL4-LIGHT cells, co-incubation 40 min 4 C; blocked ligand DcR3-Fc-AF647 0.8 ug/ml; same IC50 as 0.031ug/ml, second unit printed
Procedure: as §2

Binder | EC50 [1] | IC50, inhibition of IL-8 secretion, HT-29 + EL4-NC-LIGHT cells [2] | binding ratio, mAb to LIGHT trimer [3] | EC50 [4] | % of WT binding [5] | % of WT binding [6] | % of WT binding [7] | % of WT binding [8] | % of WT binding [9] | % of WT binding [10] | % of WT binding [11] | % of WT binding [12] | % of WT binding [13] | % of WT binding [14] | % of WT binding [15] | binding result [16] | IC50 [17] | IC50 [18]
HVEM-Fc (R&D Systems) (Fc fusion, UniProt Q92956 37-202, looked up, unlabelled in the Fab screen; also called biotin-HVEM-Fc; not shown: Fc part of the bought fusion; not described) PALPSCKEDEYPVGSECCPKCSPGYRVKEACGELTGTVCEPCPPGTYIAHLNGLSKCLQCQMCDPAMGLRASRNCSRTENAVCGCSPGHFCIVQDGDHCAACRAYATSSPGQRVQKGGTESQDTLCQNCPPGTFSPNGTLEECQHQTKCSWLVTKAGAGTSSSHWV | 45000 pM |  |  |  |  |  |  |  |  |  |  |  |  |  |  |  |  | 
LTβR-Fc (R&D Systems) (Fc fusion, UniProt P36941 28-227, looked up, also called LTBR-Fc; biotin-LTβR-Fc; not shown: Fc part of the bought fusion; not described) SQPQAVPPYASENQTCRDQEKEYYEPQHRICCSRCPPGTYVSAKCSRIRDTVCATCAENSYNEHWNYLTICQLCRPCDPVMGLEEIAPCTSKRKTQCRCQPGMFCAAWALECTHCELLSDCPPGTEAELKDEVGKGNNHCVPCKAGHFQNTSSPSARCQPHTRCENQGLVEAAPGTAQSDTTCKNPLEPLPPEMSGTMLM | 15000 pM |  |  |  |  |  |  |  |  |  |  |  |  |  |  |  |  | 
2B11 chimeric IgG4 mAb (antibody, V domains shown, Chimeric human IgG4 (S-to-P, L-to-E) with human CL, as m1; Often misprinted 2B111; also called Parental 2B11; 2B111) VH: EVQLVESGAELVRPGVSVKISCKGSGYTFTDYAIHWVKQSHAKSLEWIGVISTYYGDASYNQKFKGKATMTVDKSSSTAYMELARLTSEDSAIYYCARSRGEYGNYDAMDYWGQGTSVTVSS VL: DIVLTQSPASLAVSLGQRATISCRASESVDSYGNSFMHWYQQKPGQPPKLLIYRASNLESGIPARFSGSGSRTDFTLTINPVEADDVATYYCQQSNEDPYTFGGGTKLEIK |  | 600 pM | 1 mAb per LIGHT trimer | 83 pM | 3% | 0% | 52% | 1% | 96% | 0% | 0% | 78% | 73% | 0% | 77% | binds | 0.031 µg/mL | 214 pM
